IntAct's records for PubMed 29880681

B1: NPC1-like intracellular cholesterol transporter 1 (Homo sapiens), Q9UHC9-2 (parent)
chain: MAEAGLRGWLLWALLLRLAQSEPYTTIHQPGYCAFYDECGKNPELSGSLMTLSNVSCLSNTPARKITGDHLILLQKICPRLYTGPNTQACCSAKQLVSLEASLSITKALLTRCPACSDNFVNLHCHNTCSPNQSLFINVTRVAQLGAGQLPAVVAYEAFYQHSFAEQSYDSCSRVRVPAAATLAVGTMCGVYGSALCNAQRWLNFQGDTGNGLAPLDITFHLLEPGQAVGSGIQPLNEGVARCNESQGDDVATCSCQDCAASCPAIARPQALDSTFYLGQMPGSLVLIIILCSVFAVVTILLVGFRVAPARDKSKMVDPKKGTSLSDKLSFSTHTLLGQFFQGWGTWVASWPLTILVLSVIPVVALAAGLVFTELTTDPVELWSAPNSQARSEKAFHDQHFGPFFRTNQVILTAPNRSSYRYDSLLLGPKNFSGILDLDLLLELLELQERLRHLQVWSPEAQRNISLQDICYAPLNPDNTSLYDCCINSLLQYFQNNRTLLLLTANQTLMGQTSQVDWKDHFLYCANAPLTFKDGTALALSCMADYGAPVFPFLAIGGYKGKDYSEAEALIMTFSLNNYPAGDPRLAQAKLWEEAFLEEMRAFQRRMAGMFQVTFMAERSLEDEINRTTAEDLPIFATSYIVIFLYISLALGSYSSWSRVMVDSKATLGLGGVAVVLGAVMAAMGFFSYLGIRSSLVILQVVPFLVLSVGADNIFIFVLEYQRLPRRPGEPREVHIGRALGRVAPSMLLCSLSEAICFFLGALTPMPAVRTFALTSGLAVILDFLLQMSAFVALLSLDSKRQEASRLDVCCCVKPQELPPPGQGEGLLLGFFQKAYAPFLLHWITRGVVLLLFLALFGVSLYSMCHISVGLDQELALPKDSYLLDYFLFLNRYFEVGAPVYFVTTLGYNFSSEAGMNAICSSAGCNNFSFTQKIQYATEFPEQSYLAIPASSWVDDFIDWLTPSSCCRLYISGPNKDKFCPSTVNSLNCLKNCMSITMGSVRPSVEQFHKYLPWFLNDRPNIKCPKGGLAAYSTSVNLTSDGQVLTSRFMAYHKPLKNSQDYTEALRAARELAANITADLRKVPGTDPAFEVFPYTITNVFYEQYLTILPEGLFMLSLCLVPTFAVSCLLLGLDLRSGLLNLLSIVMILVDTVGFMALWGISYNAVSLINLVSAVGMSVEFVSHITRSFAISTKPTWLERAKEATISMGSAVFAGVAMTNLPGILVLGLAKAQLIQIFFFRLNLLITLLGLLHGLVFLPVILSYVGPDVNPALALEQKRAEEAVAAVMVASCPNHPSRVSTADNIYVNHSFEGSIKGAGAISNFLPNNGRQF
B2: LIM domain and actin-binding protein 1 (Mus musculus), Q9ERG0-1 (parent)
chain: MESTPFNRRQWTSLSLRVTAKELSLVNKNKSSAIVEIFSKYQKAAEEANMERKKNNPESLPQHFRRGTLSVLKKKWENPVAGAEFHTDSLPNSSSEGGHTADYPPAEVTDKPAPGVRADREEHTQPKPRFGSRPEAVIQSRYPRSENSHDFKAQATESQKMENCLGDSRHEAEKPETSENTETSGKIEKYNVPLNRLKMMFEKGEHNQTKSLWTQSRNAGGRRLSENNCSLDDWEIGAGHLSSSAFNSEKNESKRNLELPRLSETSIKDRMAKYQAAVSKQSSPASYTNELKTSESKTHKWEQKENVPPGPEACSVHQEGSKVSTTENSLVALSVPAEDDTCNSQVKSEAQQPMHPKPLSPDARTSSLPESSPSKTAKKFQAPAKESCVECQKTVYPMERLLANQQVFHISCFRCSYCNNKLSLGTYASLHGRIYCKPHFNQLFKSKGNYDEGFGHKQHKDLWASKSDNEETLGRPAQPPNAGESPHSPGVEDAPIAKVGVLAASMEAKASSQREREDKPAETKKLRIAWPPPAELGGSGSALEEGIKVSKPKWPPEDDVCKTEAPEDVDLDLKKLRRSSSLKERSRPFTVAASFRTSSIKSPKASSPSLRKGWSESEQSEEFGGGIATMERKQTENARPSGEKENVGKSRWQGEEVPRSKDRSSFELESENFMENGANIAEDDNHVHAQQSPLEPEAPGWSGFVDTTAAKEFTTQNQKSQDVGFWEGEVVRELSVEEQIKRNRYYDEDEDEE
partner: B1 chain

Variants of: B1
Conditions: with Lima1, Q9ERG0-1

Variant	effect of a mutation on the interaction
Q1277A;K1278A;R1279A	disrupting interaction

Variants of: B2
Conditions: with NPC1L1, Q9UHC9-2

Variant	effect of a mutation on the interaction
C164A;L165A;G166A	disrupting interaction

Variants of: B2
Conditions: with NPC1L1, Q9UHC9-2
Remark: another data set of the same source

Variant	effect of a mutation on the interaction
C164A;L165A;G166A	disrupting interaction strength
